Measurements published in paper PMC6859894 (Nature, 2019).
Like-named read-outs stand apart in the source and are kept apart here.

What was measured:
cryo-EM structure [1] = target: the molecule itself; test: cryo-EM structure
cryo-EM structure [2] = target: the molecule itself; test: cryo-EM structure; remark: listed apart in the source

B1: chicken STING (Gallus gallus), full-length, C-terminal Flag tag (natural protein, chicken (Gallus gallus), UniProt E1C7U0 1-379, looked up)
chain: MPQDPSTRSSPARLLIPEPRAGRARHAACVLLAVCFVVLFLSGEPLAPIIRSVCTQLAALQLGVLLKGCCCLAEEIFHLHSRHHGSLWQVLCSCFPPRWYLALLLVGGSAYLDPPEDNGHSPRLALTLSCLCQLLVLALGLQKLSAVEVSELTESSKKNVAHGLAWSYYIGYLKVVLPRLKECMEELSRTNPMLRAHRDTWKLHILVPLGCDIWDDLEKADSNIQYLADLPETILTRAGIKRRVYKHSLYVIRDKDNKLRPCVLEFASPLQTLCAMSQDDCAAFSREQRLEQARLFYRSLRDILGSSKECAGLYRLIAYEEPAEPESHFLSGLILWHLQQQQREEYMVQEELPLGTSSVELSLQVSSSDLPQPLRSDCP
- stoichiometry N (cryo-EM structure [1]): 2
- ratio of dimer to higher-order oligomers in the micrographs (cryo-EM structure [2]): ~4 dimer : higher-order oligomers
- stoichiometry N (cryo-EM structure [2]): 4
